Laboratory results as given in patent US20080279864A1 (Johns Hopkins, published 2008).
Ends that are not written are not given here.

B9: NTB(1-55)-pGBKT7 (other)
chain: MKLLSSIEQACDICRLKKLKCSKEKPKCAKCLKNNWECRYSPKTKRSPLTRAHLTEVESRLERLEQLFLLIFPREDLDMILKMDSLQDIKALLTGLFVQDNVNKDAVTDRLASVETDMPLTLRQHRISATSSSEESSNKGQRQLTVSMVRFGDELGGRYGGPGGGERARGGGAGGAGGPGPGGLQPGQRVLYKQSIAQRART
notes: Yeast two-hybrid fusion; GAL4 domain placed first by the vector's design
B10: lam-pGBKT7 (lamin C attached to the GAL4 binding domain) (other, UniProt P04386 1-147, looked up)
chain: MKLLSSIEQACDICRLKKLKCSKEKPKCAKCLKNNWECRYSPKTKRSPLTRAHLTEVESRLERLEQLFLLIFPREDLDMILKMDSLQDIKALLTGLFVQDNVNKDAVTDRLASVETDMPLTLRQHRISATSSSEESSNKGQRQLTVSSEEVVSREVSGIKAAYEAELGDARKTLDSVAKERARLQLELSKVREEFKELKARNTKKEGDLIAAQARLKDLEALLNSKEAALSTALSEKRTLEGELHDLRGQVAKLEAALGEAKKQLQDEMLRRVDAENRLQTMKEELDFQKNIYSEELRETKRRHETRLVEID
B11: NTB(1-95)-pGBKT7 (NH3 terminus of α1B fused to the GAL4 binding domain) (other)
chain: MKLLSSIEQACDICRLKKLKCSKEKPKCAKCLKNNWECRYSPKTKRSPLTRAHLTEVESRLERLEQLFLLIFPREDLDMILKMDSLQDIKALLTGLFVQDNVNKDAVTDRLASVETDMPLTLRQHRISATSSSEESSNKGQRQLTVSMVRFGDELGGRYGGPGGGERARGGGAGGAGGPGPGGLQPGQRVLYKQSIAQRARTMALYNPIPVKQNCFTVNRSLFVFSEDNVVRKYAKRITEWP
notes: Yeast two-hybrid fusion; GAL4 domain placed first by the vector's design; also called NTB (pGBKT7); full-length NTB

Legend:
[1] = biological target: T1, NTC(1-153)-pGBKT7 (NH3 terminus of α1C fused to the GAL4 binding domain) (rabbit, UniProt P04386 1-147; P15381 1-153); test: yeast two-hybrid
T1 construct: Yeast two-hybrid fusion; GAL4 domain placed first by the vector's design; also called NTC (pGBKT7)

[2] = biological target: B10; test: yeast two-hybrid control against lamin C, % of colonies surviving on high stringency plates, mean ± SEM
I-IIB-YFP [3] = biological target: T2, I-IIB-YFP (human, UniProt Q00975 357-482); test: FRET two-hybrid in HEK293 cells
T2 construct: range 357-482; also called I-IIB in FRET; not shown: EYFP fused C-terminal to the test molecule

I-IIB-YFP [4] = biological target: T2, I-IIB-YFP; test: FRET two-hybrid in HEK293 cells (three-cube FRET and YFP photobleaching)
[5] = biological target: T3, Gβ1 fused to the GAL4 activation domain (Gβ1 in pGADT7) (UniProt P62871 1-340); test: yeast two-hybrid, Gβ1 in pGADT7 against I-IIB in pGBKT7
T3 construct: Yeast two-hybrid fusion; GAL4 domain placed first by the vector's design; also called Gβ1 (pGADT7); Gβ1/pGADT7

[6] = biological target: T4, CTC(1525-1670)pGBKT7 (proximal third of the α1C COOH terminus fused to the GAL4 binding domain) (rabbit, UniProt P04386 1-147; P15381 1525-1670); test: yeast two-hybrid auto-activation control (empty pGADT7), % of colonies surviving on high stringency plates, mean ± SEM
T4 construct: Yeast two-hybrid fusion; GAL4 domain placed first by the vector's design; also called CTC (pGBKT7)

[7] = biological target: T5, NTA(2-100)pGBKT7 (NH3 terminus of the P/Q-type α1A subunit fused to the GAL4 binding domain) (UniProt P04386 1-147); test: as above
T5 construct: Yeast two-hybrid fusion; GAL4 domain placed first by the vector's design

[8] = biological target: T1, NTC(1-153)-pGBKT7 (NH3 terminus of α1C …); test: as above
[9] = biological target: T6, CTA(1763-1928)pGBKT7 (proximal COOH terminus of the P/Q-type α1A subunit fused to the GAL4 binding domain) (UniProt P04386 1-147); test: as above
T6 construct: Yeast two-hybrid fusion; GAL4 domain placed first by the vector's design

NTB(45-95)-pGBKT7 [10] = biological target: T7, NTB(45-95)-pGBKT7 (human, UniProt P04386 1-147 (Saccharomyces cerevisiae entry)); test: as above
T7 construct: Yeast two-hybrid fusion; GAL4 domain placed first by the vector's design

NTB(Δ45-55)-pGBKT7 [11] = biological target: T8, NTB(Δ45-55)-pGBKT7 (human, UniProt Q00975 1-95); test: as above
T8 construct: Yeast two-hybrid fusion; GAL4 domain placed first by the vector's design; also called NTB peptide lacking residues 45-55

NTB(1-55)-pGBKT7 [12] = biological target: B9; test: as above
[13] = biological target: B11; test: as above
[14] = biological target: T4, CTC(1525-1670)pGBKT7 (proximal third of …); test: yeast two-hybrid auto-activation control (empty pGADT7), filter lift β-galactosidase assay, % of colonies turning blue, mean ± SEM
[15] = biological target: T5, NTA(2-100)pGBKT7 (NH3 terminus of the …); test: as above
[16] = biological target: T1, NTC(1-153)-pGBKT7 (NH3 terminus of α1C …); test: as above
[17] = biological target: T6, CTA(1763-1928)pGBKT7 (proximal COOH …); test: as above
NTB(45-95)-pGBKT7 [18] = biological target: T7, NTB(45-95)-pGBKT7; test: as above
NTB(Δ45-55)-pGBKT7 [19] = biological target: T8, NTB(Δ45-55)-pGBKT7; test: as above
NTB(1-55)-pGBKT7 [20] = biological target: B9; test: as above
[21] = biological target: B11; test: as above
[22] = biological target: T3, Gβ1 fused to the GAL4 activation domain …; test: yeast two-hybrid
[23] = biological target: T3, Gβ1 fused to the GAL4 activation domain …; test: yeast two-hybrid, background control

T3 sequence (P62871 whole entry, the tested form may be a part): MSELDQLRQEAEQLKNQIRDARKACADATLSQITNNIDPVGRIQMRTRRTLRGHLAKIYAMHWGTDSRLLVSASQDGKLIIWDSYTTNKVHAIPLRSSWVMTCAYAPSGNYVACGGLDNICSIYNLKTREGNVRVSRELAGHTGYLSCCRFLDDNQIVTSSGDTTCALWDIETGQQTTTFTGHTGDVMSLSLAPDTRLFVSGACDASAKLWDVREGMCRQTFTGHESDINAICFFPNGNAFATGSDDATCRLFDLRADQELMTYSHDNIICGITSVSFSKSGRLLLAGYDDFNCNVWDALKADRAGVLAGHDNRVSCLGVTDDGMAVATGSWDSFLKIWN

B1: I-IIB(357-482)-pGADT7 (I-II loop of α1B fused to the GAL4 activation domain) (other, human, UniProt Q00975 357-482, looked up, not shown: large carriers)
chain: GEFAKERERVENRRAFLKLRRQQQIERELNGYLEWIFKAEEVMLAEEDRNAEEKSPLDVLKRAATKKSRNDLIHAEEGEDRFADLCAVGSPFARASLKSGKTESSSYFRRKEKMFRFFIRRMVKAQ
notes: range 357-482; Yeast two-hybrid fusion; GAL4 domain placed first by the vector's design; also called I-IIB (pGADT7)
[1]
  binding result: no binding
[2]
  High Stringency (%): 0.74%

B2: I-IIB(436-482)-pGADT7 (other, human, UniProt Q00975 436-482, looked up, not shown: large carriers)
chain: DRFADLCAVGSPFARASLKSGKTESSSYFRRKEKMFRFFIRRMVKAQ
notes: range 436-482; Yeast two-hybrid fusion; GAL4 domain placed first by the vector's design
[2]
  High Stringency (%): 0%

B3: NTB (56-95)-CFP (other)
chain: MALYNPIPVKQNCFTVNRSLFVFSEDNVVRKYAKRITEWP-{ECFP}
modifications: also: ECFP fused C-terminally, linker not given here
notes: not shown: ECFP fused C-terminal to the test molecule
I-IIB-YFP [3]
  binding result: binds

B4: NTB (1-44)-CFP (other)
chain: MVRFGDELGGRYGGPGGGERARGGGAGGAGGPGPGGLQPGQRVL-{ECFP}
modifications: also: ECFP fused C-terminally, linker not given here
notes: as for B3
I-IIB-YFP [3]
  binding result: no binding

B5: I-IIB(357-397)-pGADT7 (other, human, UniProt Q00975 357-397, looked up, not shown: large carriers)
chain: GEFAKERERVENRRAFLKLRRQQQIERELNGYLEWIFKAEE
notes: range 357-397; Yeast two-hybrid fusion; GAL4 domain placed first by the vector's design; Equating this segment with the 'N-terminal third' of the text is an inference; also called N-terminal third of the I-IIB loop; NH3-terminal third of the I-IIB loop
[2]
  High Stringency (%): 0%

B6: NTB-CFP (other)
chain: MVRFGDELGGRYGGPGGGERARGGGAGGAGGPGPGGLQPGQRVLYKQSIAQRARTMALYNPIPVKQNCFTVNRSLFVFSEDNVVRKYAKRITEWP
notes: also called NTB-CFP peptide; NTB (1-95) in FRET; not shown: ECFP fused C-terminal to the test molecule
I-IIB-YFP [4]
  binding result: binds

B7: I-IIB(357-482)-pGBKT7 (I-II loop of α1B fused to the GAL4 binding domain) (other, UniProt P04386 1-147, looked up)
chain: MKLLSSIEQACDICRLKKLKCSKEKPKCAKCLKNNWECRYSPKTKRSPLTRAHLTEVESRLERLEQLFLLIFPREDLDMILKMDSLQDIKALLTGLFVQDNVNKDAVTDRLASVETDMPLTLRQHRISATSSSEESSNKGQRQLTVSGEFAKERERVENRRAFLKLRRQQQIERELNGYLEWIFKAEEVMLAEEDRNAEEKSPLDVLKRAATKKSRNDLIHAEEGEDRFADLCAVGSPFARASLKSGKTESSSYFRRKEKMFRFFIRRMVKAQ
notes: Yeast two-hybrid fusion; GAL4 domain placed first by the vector's design; also called I-IIB (pGBKT7)
[5]
  binding result: binds

B8: pGADT7 (empty vector; the isolated GAL4 activating domain itself) (other, UniProt P04386 768-881, looked up)
chain: ANFNQSGNIADSSLSFTFTNSSNGPNLITTQTNSQALSQPIASSNVHDNFMNNEITASKIDDGNNSKPLSPGWTDQTAYNAFGITTGMFNTTTMDDVYNYLFDDEDTPPNPKKE
notes: also called empty pGADT7
[6]
  High Stringency (%): 0%
[7]
  High Stringency (%): 0%
[8]
  High Stringency (%): 1%
[9]
  High Stringency (%): 0.1%
NTB(45-95)-pGBKT7 [10]
  High Stringency (%): 0%
NTB(Δ45-55)-pGBKT7 [11]
  High Stringency (%): 0.56%
NTB(1-55)-pGBKT7 [12]
  High Stringency (%): 3.84%
[13]
  High Stringency (%): 0.34%
[14]
  Filter Lift Assay (%): 0%
[15]
  Filter Lift Assay (%): 0.82%
[16]
  Filter Lift Assay (%): 0%
[17]
  Filter Lift Assay (%): 0%
NTB(45-95)-pGBKT7 [18]
  Filter Lift Assay (%): 0%
NTB(Δ45-55)-pGBKT7 [19]
  Filter Lift Assay (%): 2.5%
NTB(1-55)-pGBKT7 [20]
  Filter Lift Assay (%): 1.56%
[21]
  Filter Lift Assay (%): 0.14%

## B9
[22]
  binding result: binds

## B10
[23]
  binding result: no binding

## B11
[22]
  binding result: binds

B12: I-IIB(398-435)-pGADT7 (other, human, UniProt Q00975 398-435, looked up, not shown: large carriers)
chain: VMLAEEDRNAEEKSPLDVLKRAATKKSRNDLIHAEEGE
notes: range 398-435; Yeast two-hybrid fusion; GAL4 domain placed first by the vector's design
[2]
  High Stringency (%): 0.04%
